Measurements reported in article PMC7793260, “MreC and MreD balance the interaction between the elongasome proteins PBP2 and RodA” (PLoS Genetics, 2020).

Biological target: T1, PBP2 (wild type), fused to mKO or to mCherry (E. coli, UniProt P0AD65 1-633)
T1 construct: PBP2, peptidoglycan transpeptidase of the E. coli elongasome, wild type; mKO-PBP2 in all others; also called mKO-PBP2^WT; mKO-PBP2; source: E. coli LMC500, expressed from plasmid (15 uM IPTG), in fixed cells; not shown: mKO (donor construct, pWA004) or mCherry (acceptor construct), N-terminal, kept
T1 sequence (looked up): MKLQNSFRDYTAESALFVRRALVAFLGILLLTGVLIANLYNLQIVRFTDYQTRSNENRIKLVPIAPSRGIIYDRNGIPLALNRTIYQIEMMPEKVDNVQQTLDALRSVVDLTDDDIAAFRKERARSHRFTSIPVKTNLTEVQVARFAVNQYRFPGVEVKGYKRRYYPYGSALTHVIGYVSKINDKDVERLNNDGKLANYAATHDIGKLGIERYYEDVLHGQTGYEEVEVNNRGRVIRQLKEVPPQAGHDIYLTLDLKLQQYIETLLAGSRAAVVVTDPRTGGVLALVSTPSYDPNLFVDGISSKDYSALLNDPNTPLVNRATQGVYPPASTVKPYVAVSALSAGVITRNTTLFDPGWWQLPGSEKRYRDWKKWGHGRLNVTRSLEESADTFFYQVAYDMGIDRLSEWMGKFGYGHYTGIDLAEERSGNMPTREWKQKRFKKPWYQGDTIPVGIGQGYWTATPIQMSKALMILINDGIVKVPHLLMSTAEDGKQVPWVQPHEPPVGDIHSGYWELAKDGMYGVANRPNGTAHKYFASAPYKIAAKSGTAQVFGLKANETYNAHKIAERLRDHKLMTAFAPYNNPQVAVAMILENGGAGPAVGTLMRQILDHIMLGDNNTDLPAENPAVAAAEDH
Test: FRET or BRET; two-plasmid spectral FRET in E. coli LMC500 cells; mCherry fusion as acceptor, mKO fusion as donor; Gb4 medium, steady state at 28 C, 15 uM IPTG for two mass doublings, FAGA-fixed; acceptor FRET efficiency (EfA) by spectral unmixing
Conditions: partners not purified

B1: RodA (wild type), fused to mCherry or to mKO (enzyme, E. coli, UniProt P0ABG7 1-370, looked up)
chain: MTDNPNKKTFWDKVHLDPTMLLILLALLVYSALVIWSASGQDIGMMERKIGQIAMGLVIMVVMAQIPPRVYEGWAPYLYIICIILLVAVDAFGAISKGAQRWLDLGIVRFQPSEIAKIAVPLMVARFINRDVCPPSLKNTGIALVLIFMPTLLVAAQPDLGTSILVALSGLFVLFLSGLSWRLIGVAVVLVAAFIPILWFFLMHDYQRQRVMMLLDPESDPLGAGYHIIQSKIAIGSGGLRGKGWLHGTQSQLEFLPERHTDFIFAVLAEELGLVGILILLALYILLIMRGLWIAARAQTTFGRVMAGGLMLILFVYVFVNIGMVSGILPVVGVPLPLVSYGGSALIVLMAGFGIVMSIHTHRKMLSKSV
notes: RodA, peptidoglycan glycosyltransferase of the E. coli elongasome; wild-type rodA gene; mCh-RodA in all others; also called mCh-RodA; mKO-RodA; source: E. coli LMC500, expressed from plasmid (15 uM IPTG), in fixed cells; not shown: mCherry (acceptor construct, pSAV047-RodA) or mKO (donor construct, pXL56), N-terminal, kept
EfA (acceptor FRET efficiency): 12.7%
